{"source": "patent US20070218504A1", "about": "“HUMAN LEPTIN-DERIVED POLYPEPTIDES AND USES THEREOF” (UNIVERSITY OF PITTSBURGH, priority 2006, published 2007)", "molecules": {"B1": {"name": "mouse leptin (ligand, UniProt P41160 22-167, looked up)", "chain": "VPIQKVQDDTKTLIKTIVTRINDISHTQSVSAKQRVTGLDFIPGLHPILSLSKMDQTLAVYQQVLTSLPSQNVLQIANDLENLRDLLHLLAFSKSCSLPQTSGLQKPESLDGVLEASLYSTEVVALSRLQGSLQDILQQLDVSPEC", "modifications": "125I-labelled in the receptor binding assay of FIG. 4B", "notes": "also called murine-leptin; recombinant mouse leptin"}, "B2": {"name": "human C-reactive protein (other, UniProt P02741 19-224, looked up)", "chain": "QTDMSRKAFVFPKESDTSYVSLKAPLTKPLKAFTVCLHFYTELSSTRGYSIFSYATKRQDNEILIFWSKDIGYSFTVGGSEILFEVPEVTVAPVHICTSWESASGIVEFWVDGKPRVRKSLKKGYTVGAEASIILGQEQDSFGGNFEGSQSLVGDIGNVNMWDFVLSPDEINTIYLGGPFSPNVLNWRALKYEVQGEVFTKPQLWP", "notes": "also called human CRP; CRP"}, "B3": {"name": "Mouse leptin: mouse recombinant leptin (protein)", "chain": "B1 chain"}}, "key": {"human CRP": {"target": "T1, human CRP (Homo sapiens, UniProt P02741)", "T1 construct": "purchased CHEMICON or EMD Biosciences", "T1 sequence (P02741 19-224)": "B2 chain", "assay": "Polypeptide blocking of human CRP inhibition of leptin-stimulated STAT3 tyrosine phosphorylation in HEK-293 cells over-expressing OB-Rb", "type": "cell-based", "details": "for restoration of leptin-stimulated STAT3 activation in presence of human CRP, Example 8 comparison: human CRP 8 μg/ml, human leptin 2 nM, 1 hour pre-incubation, up to 0.8 μM (800 nM); for effect of polypeptide by itself on STAT phosphorylation: control, polypeptide alone; for blocking of the inhibitory effect of human CRP on leptin signaling (STAT3 tyrosine phosphorylation): polypeptide pre-incubated with human CRP 30 minutes, then human leptin 45 minutes", "experimental": "In the in vitro experiment, each of these polypeptide was pre-incubated with human CRP for 30 minutes before being mixed with human leptin for an additional 45 minutes. The resultant mixture was then added to the HEK-293 cells over-exprssing the long form leptin receptors, OB-Rb. After a 30-minute incubation, the cells were harvested in a protein extraction buffer (18). The signaling of leptin in the cells, measured by its ability to stimulate tyrosine phosphorylation on STAT3 in a western blot assay, was evaluated (see FIGS. 8, 9, 10 for polypeptides B, C1 and E, respectively).\nPursuant to an in vitro protocol similar to that described in Example 6, a hexamer disclosed in U.S. Pat. No. 6,777,388, NH2—S—C—H-L-P—W—COOH (SEQ ID NO:18), was pre-incubated with human CRP (8 μg/ml) and human leptin (2 nM) for 1 hour. The resultant mixture then was added to HEK-293 cells that over-expressed the long form leptin receptor, OB—Rb. After a 30-minute incubation, the cells were harvested in a protein extraction buffer. To evaluate signaling of human leptin in the cells, tyrosine phosphorylation on STAT3 was measured in a western blot assay."}, "ob/ob mice [1]": {"test_system": "ob/ob mice", "assay": "Co-infusion of polypeptide E with human CRP and leptin through mini-osmotic pumps into ob/ob mice", "type": "in vivo, mouse", "details": "for restoration of satiety and weight-reducing effects of human leptin (food intake, body weight): Pep-E 24 or 48 μg/day/mouse with human CRP 48 μg/day/mouse and leptin 12 μg/day/mouse", "experimental": "FIG. 11. […] Infusion dosages for human CRP and leptin were 48 μg/day/mouse and 12 μg/day/mouse, respectively. The infusion rate for Pep-E (P) was 24 μg/day/mouse (medium dosage, “m”) and 48 μg/day/mouse (high dosage, “h”). Food-intake (A and C) and body weight (B and D) were monitored daily throughout the infusion. The arrows in A-D indicate the day of surgery. At the end of infusion, blood samples were collected for the measurement of blood-glucose, human CRP, and human leptin. The serum concentrations of human CRP and human leptin were 0.85±0.1 μg/ml and 18 ng±2 ng/ml, respectively. […] Also shown is glucose concentration from mice infused with human CRP and leptin but not with Pep-E.\nIn the in vivo experiment, polypeptide E was co-infused through mini-osmotic pumps with human CRP and leptin into the ob/ob mice. Food intake in the period of 24 hours and body weight were followed during the infusion period (FIGS. 11A-11D)."}, "[2]": {"target": "long-form human leptin receptor, OB-Rb (human) (UniProt P48357)", "sequence (P48357 22-1165)": "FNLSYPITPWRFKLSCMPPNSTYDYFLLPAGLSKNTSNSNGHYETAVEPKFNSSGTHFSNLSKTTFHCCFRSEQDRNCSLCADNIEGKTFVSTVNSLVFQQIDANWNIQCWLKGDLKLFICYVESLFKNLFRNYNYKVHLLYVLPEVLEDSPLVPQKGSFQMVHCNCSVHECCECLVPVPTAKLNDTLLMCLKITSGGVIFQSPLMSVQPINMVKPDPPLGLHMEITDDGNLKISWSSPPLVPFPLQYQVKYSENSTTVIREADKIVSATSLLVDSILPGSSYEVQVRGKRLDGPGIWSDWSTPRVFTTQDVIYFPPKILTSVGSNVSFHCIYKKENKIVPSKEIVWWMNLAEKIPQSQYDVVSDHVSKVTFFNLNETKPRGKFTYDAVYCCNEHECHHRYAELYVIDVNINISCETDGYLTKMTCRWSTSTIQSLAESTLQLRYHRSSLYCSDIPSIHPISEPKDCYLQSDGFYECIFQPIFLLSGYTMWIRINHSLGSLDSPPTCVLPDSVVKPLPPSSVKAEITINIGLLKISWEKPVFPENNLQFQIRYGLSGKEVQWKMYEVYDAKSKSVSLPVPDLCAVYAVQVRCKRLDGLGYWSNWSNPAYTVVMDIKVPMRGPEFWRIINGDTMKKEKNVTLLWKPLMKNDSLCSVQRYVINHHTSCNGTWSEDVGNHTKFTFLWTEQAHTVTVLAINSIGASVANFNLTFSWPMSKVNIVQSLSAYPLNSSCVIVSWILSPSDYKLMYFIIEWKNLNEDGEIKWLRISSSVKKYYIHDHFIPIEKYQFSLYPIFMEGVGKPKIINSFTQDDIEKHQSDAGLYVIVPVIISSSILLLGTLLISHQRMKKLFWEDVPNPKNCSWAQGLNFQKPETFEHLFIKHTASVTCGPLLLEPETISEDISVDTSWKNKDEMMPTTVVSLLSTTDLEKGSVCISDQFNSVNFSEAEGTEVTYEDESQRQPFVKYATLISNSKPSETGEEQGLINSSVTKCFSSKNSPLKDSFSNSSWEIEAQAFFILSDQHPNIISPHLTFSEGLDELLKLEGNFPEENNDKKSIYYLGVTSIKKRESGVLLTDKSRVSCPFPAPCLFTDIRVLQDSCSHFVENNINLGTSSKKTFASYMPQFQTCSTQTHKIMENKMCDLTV", "assay": "125I-human leptin binding to HEK293 cells stably transfected with human OB-Rb"}, "[3]": {"test_system": "tyrosine phosphorylation of STAT3", "assay": "Leptin-induced tyrosine phosphorylation of STAT3 in HEK293 cells over-expressing OB-Rb in the presence of CRP (Western blot)", "type": "cell-based, human", "details": "separate control, concentrations much higher than CRP", "experimental": "To determine if the interaction between CRP and leptin dampens the cellular actions of leptin, the ability of leptin to stimulate tyrosine phosphorylation of STAT3 and PI3-kinase activity was assessed in the presence of CRP in vitro. HEK293 cells over-expressing OB-Rb were serum starved for 2 hours before addition of leptin and CRP (CHEMICON or EMD Biosciences). Leptin, in the presence or absence of CRP, was pre-incubated in μ-MEM (with additional 1 mM Ca^2+) for 30 minutes at 37° C. before being applied to the cells. After a 30-minute incubation with leptin, the cells were harvested in lysis buffer (18). The resultant protein extract was subjected to a Western blot analysis using an anti-phospho-STAT3 specific antibody (Cell Signaling, Beverly, Mass.). For studies involving primary hypothalamic neurons, the hypothalamus from rats was surgically isolated immediately after euthanasia, and placed in the DMEM for incubation with leptin in the presence or absence of CRP."}, "rat C-reactive protein": {"target": "T2, rat C-reactive protein (rat, UniProt P48199 20-230)", "T2 construct": "mature; also called rat CRP; rat SLIP-1", "T2 sequence (looked up)": "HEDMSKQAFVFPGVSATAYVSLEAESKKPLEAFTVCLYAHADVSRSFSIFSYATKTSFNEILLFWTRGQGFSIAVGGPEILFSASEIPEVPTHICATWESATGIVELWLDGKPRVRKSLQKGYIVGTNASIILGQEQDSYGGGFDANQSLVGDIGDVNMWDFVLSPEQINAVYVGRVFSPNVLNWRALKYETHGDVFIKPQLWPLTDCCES", "assay": "rat serum on mouse leptin-Sepharose affinity column; eluted band identified by MALDI-TOF", "experimental": "Retained material was eluted with an acidic glycine solution, and the eluate was immediately neutralized in a Tris-buffer (50 mM, pH=9.5).\nThe mass-spec assay was performed on Thermo Finnigan LTQ mass spectrometer by CTO-BIO Services (Rockville, Md.). Data analysis was carried out with the Turbo-Sequest software."}, "human leptin": {"target": "T3, human leptin (human, UniProt P41159 22-167, 125I-labelled (Iodogen method) in the receptor binding assay of Example 3)", "T3 construct": "Recombinant human leptin from AF Parlow, NHPP; also called recombinant human leptin", "assay": "human CRP pre-incubated with 125I-human leptin (~2 ng/ml); inhibition of leptin binding to OB-Rb on HEK293 cells", "experimental": "After 10-minute incubation at room temperature, the reaction was stopped with 100 μl 0.1% trifluoroacetic acid (TFA). The reaction mixture was immediately purified by reverse-phase HPLC. The separation employed a 5-minute isocratic step at 20% eluant B in A, followed by two consecutive 30 min linear gradients from 20 to 50%, then from 50 to 60% eluant B in A (where eluant A is water containing 0.1% TFA and eluant B is acetonitrile containing 0.1% TFA) at a flow rate of 1.5 ml/min. […] The incubation would last for 3 hour at 4° C. before the media was aspirated and the cells were dissolved in 0.1N NaOH for scintillation counting."}, "ob/ob mice [4]": {"test_system": "ob/ob mice", "assay": "Intracerebralventricular (i.c.v.) injection of human CRP and leptin in ob/ob mice, food intake and body weight", "type": "in vivo, mouse"}, "[5]": {"details": "mouse leptin i.c.v. after human CRP"}}, "note": "Entries after “also recorded” stand apart in the source; their conditions may differ.", "data": [{"molecule": "H-WPLHCS-OH [D-form, reference compound]", "values": [{"measurement": "restoration of leptin-stimulated STAT3 activation in presence of human CRP, Example 8 comparison", "setting": "human CRP", "value": "failed to restore"}]}, {"molecule": "KVQDDTKTLIKTIVTRINDISHTQS (listed as Homo sapiens) [polypeptide B, chemically synthesized human leptin-derived polypeptide, residues 26 to 50]", "values": [{"measurement": "effect of polypeptide by itself on STAT phosphorylation", "setting": "human CRP", "value": "did not induce any changes; also recorded: does not have any effect"}, {"measurement": "blocking of the inhibitory effect of human CRP on leptin signaling (STAT3 tyrosine phosphorylation)", "setting": "human CRP", "value": "able to block the inhibitory effect of human CRP and to restore leptin signaling"}]}, {"molecule": "LAFSKSCHLPWASGLETLDSLGGVLEA (listed as Homo sapiens) [polypeptide E, chemically synthesized human leptin-derived polypeptide, residues 111 to 137]", "values": [{"measurement": "effect of polypeptide by itself on STAT phosphorylation", "setting": "human CRP", "value": "did not induce any changes; also recorded: does not have any effect"}, {"measurement": "effect of polypeptide by itself on STAT phosphorylation", "setting": "human CRP; listed as Peptide-E", "value": "did not induce any changes"}, {"measurement": "restoration of leptin-stimulated STAT3 activation in presence of human CRP, Example 8 comparison", "setting": "human CRP", "value": "able to restore"}, {"measurement": "restoration of leptin-stimulated STAT3 activation in presence of human CRP, Example 8 comparison", "setting": "human CRP; listed as Peptide-E", "value": "blocked the inhibitory effect"}, {"measurement": "blocking of the inhibitory effect of human CRP on leptin signaling (STAT3 tyrosine phosphorylation)", "setting": "human CRP", "value": "able to block the inhibitory effect of human CRP and to restore leptin signaling"}, {"measurement": "restoration of satiety and weight-reducing effects of human leptin (food intake, body weight)", "setting": "ob/ob mice [1]", "value": "able to restore both of these functions"}, {"measurement": "restoration of satiety and weight-reducing effects of human leptin (food intake, body weight)", "setting": "ob/ob mice [1]; listed as Peptide-E", "value": "restored the physiological effects of human leptin"}, {"measurement": "restoration of effect of human leptin on blood glucose", "setting": "ob/ob mice [1]; end of infusion, high dosage Pep-E", "value": "able to restore the beneficial effect"}]}, {"molecule": "NH2—S—C—H-L-P—W—COOH (H-SCHLPW-OH) [hexamer, hexamer disclosed in U.S. Pat. No. 6,777,388, reference compound]", "values": [{"measurement": "restoration of leptin-stimulated STAT3 activation in presence of human CRP, Example 8 comparison", "setting": "human CRP", "value": "unable to block"}, {"measurement": "restoration of leptin-stimulated STAT3 activation in presence of human CRP, Example 8 comparison", "setting": "human CRP; listed as L-form", "value": "failed to restore"}]}, {"molecule": "VSSKQKVTGLDFIPGLHPILTLSKM (listed as Homo sapiens) [polypeptide C1, chemically synthesized human leptin-derived polypeptide, residues 51 to 75]", "values": [{"measurement": "concentration at which the maximal effect can be reached", "setting": "human CRP; FIG. 9A", "value": 50, "unit": "nM"}, {"measurement": "effect of higher concentration", "setting": "human CRP; FIG. 9B", "value": "does not further improve its effect"}, {"measurement": "relative effectiveness in blocking the CRP activity on leptin", "setting": "human CRP; compared with the other polypeptides", "value": "more effective at a lower concentration"}, {"measurement": "effect of polypeptide by itself on STAT phosphorylation", "setting": "human CRP", "value": "did not induce any changes; also recorded: does not have any effect"}, {"measurement": "blocking of the inhibitory effect of human CRP on leptin signaling (STAT3 tyrosine phosphorylation)", "setting": "human CRP", "value": "able to block the inhibitory effect of human CRP and to restore leptin signaling"}]}, {"molecule": "human leptin (from UniProt P41159 22-167) (ligand)", "values": [{"measurement": "Kd", "setting": "[2]", "value": 1, "unit": "nM"}]}, {"molecule": "human serum amyloid P component: control serum protein circulating at much higher concentrations than CRP [reference compound]", "values": [{"measurement": "effect of control serum protein on leptin-induced STAT3 phosphorylation / leptin signaling", "setting": "[3]", "value": "did not influence leptin signaling"}]}, {"molecule": "B1", "values": [{"measurement": "binding result", "setting": "rat C-reactive protein", "value": "binds"}]}, {"molecule": "B2", "values": [{"measurement": "IC50", "setting": "human leptin", "value": "~0.08", "unit": "µg/mL"}, {"measurement": "molecular ratio (CRP:leptin) at the IC50", "setting": "human leptin", "value": 5.8}]}, {"molecule": "B3", "values": [{"measurement": "decrease of food intake, PBS pre-injection", "setting": "ob/ob mice [4]; mouse leptin i.c.v. after PBS", "value": 32.9, "unit": "%"}, {"measurement": "reduction of body weight, PBS pre-injection", "setting": "ob/ob mice [4]; mouse leptin i.c.v. after PBS", "value": 1.80, "unit": "%"}, {"measurement": "decrease of food intake, human CRP pre-injection", "setting": "ob/ob mice [4]; [5]", "value": 32.4, "unit": "%"}, {"measurement": "reduction of body weight, human CRP pre-injection", "setting": "ob/ob mice [4]; [5]", "value": 1.76, "unit": "%"}]}]}
